Experimental data reported in US20250066421A1.
*1 amine or outer side, *2 acyl side, *3 side chain or, on linkers, in order; H or OH if unused. Bridges are numbered along the chain shown (N, C = ends). Where no end group is shown, it is not given here. [ ]: non-standard residue; d: D form. TATA = O=C(CC[*:1])N1CN(C(=O)CC[*:2])CN(C(=O)CC[*:3])C1; 1Nal = N[C@@H](Cc1cccc2ccccc12)C(=O)O; PABC = O=C(OCc1ccc(N[*:1])cc1)[*:2]; Glutaryl = O=C(CCCC(=O)[*:2])[*:1]; Cya = N[C@@H](CS(=O)(=O)O)C(=O)O; Hyp = O=C(O)[C@@H]1C[C@@H](O)CN1; dCya = N[C@H](CS(=O)(=O)O)C(=O)O; hArg = N=C(N)NCCCC[C@H](N)C(=O)O; Cit = NC(=O)NCCC[C@H](N)C(=O)O; βAla = NCCC(=O)O; Sar = CNCC(=O)O

T1: human Nectin-4 (human), Q96NY8
T1 chain: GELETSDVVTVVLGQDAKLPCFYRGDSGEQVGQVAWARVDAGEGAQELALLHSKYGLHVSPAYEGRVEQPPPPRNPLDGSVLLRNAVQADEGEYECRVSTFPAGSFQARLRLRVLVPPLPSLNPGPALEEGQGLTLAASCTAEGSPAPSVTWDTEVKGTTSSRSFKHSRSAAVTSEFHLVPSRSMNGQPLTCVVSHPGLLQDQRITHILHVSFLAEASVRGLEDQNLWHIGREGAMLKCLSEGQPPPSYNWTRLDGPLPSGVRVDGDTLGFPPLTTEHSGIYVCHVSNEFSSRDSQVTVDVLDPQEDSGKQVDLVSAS


Key:
[1] = target: Human Nectin-4 (residues Gly32-Ser349; NCBI RefSeq: NP_112178.2) with C-terminal FLAG tag, biotinylated (human) (UniProt Q96NY8); experiment: SPR (Biacore 3000), biotinylated human Nectin-4 on streptavidin CM5 chip, drug conjugate as analyte
[2] = target: Human Nectin-4 (residues Gly32-Ser349; NCBI RefSeq: NP_112178.2) with C-terminal FLAG tag, biotinylated (human) (UniProt Q96NY8); experiment: SPR (Biacore 3000), biotinylated human Nectin-4 on streptavidin CM5 chip, peptide as analyte
[3] = target: T1, human Nectin-4 (human), Q96NY8; experiment: FP competition with tracer m4; settings: remark: other sources report otherwise

| Kd [2] | Binder | other results |
| --- | --- | --- |
| – | {MMAE-PABC-Cit-Val-Glutaryl-βAla}-[Sar][Sar][Sar][Sar][Sar][Sar][Sar][Sar][Sar][Sar]CP[1Nal][dCya]CM[hArg][Cya]WSTP[Hyp]WC (linker 11-15-25 via TATA) [BCY8784: MMAE-PABC-Cit-Val-Glutaryl-BCY8273] | Kd [1]: 0.662 nM |
| 0.94 nM | Ac-CP[1Nal][dD]CM[hArg][Cya]WSTP[Hyp]WC (linker 1-5-15 via TATA) [BCY8161: Ac-(SEQ ID NO: 177)] | – |
| – | ACPFGCMKNWAWPIWCTNK (linker 2-6-16 via TATA) [BCY7424] | Ki [3]: 562 nM |
| 1.92 nM | {Ac-βAla}-[Sar][Sar][Sar][Sar][Sar][Sar][Sar][Sar][Sar][Sar]CP[1Nal][dD]CM[hArg][Cya]WSTP[Hyp]WC (linker 11-15-25 via TATA) [BCY8278: Ac-[B-Ala][Sar10]-(SEQ ID NO: 177)] | – |
| 2 nM | {Ac-βAla}-[Sar][Sar][Sar][Sar][Sar][Sar][Sar][Sar][Sar][Sar]CP[1Nal][dCya]CM[hArg][Cya]WSTP[Hyp]WC (linker 11-15-25 via TATA) [BCY8280: Ac-[B-Ala][Sar10]-(SEQ ID NO: 209)] | – |
| 6.11 nM | {Ac-βAla}-[Sar][Sar][Sar][Sar][Sar][Sar][Sar][Sar][Sar][Sar]CP[1Nal][dD]CM[Cya][Cya]WSTP[Hyp]WC (linker 11-15-25 via TATA) [BCY8281: Ac-[B-Ala][Sar10]-(SEQ ID NO: 210)] | – |
